T1: human FcγRIIaR extracellular domain, C-terminal His-tag (human, UniProt P12318 34-217)
T1 construct: also called human FcγRIIa (type R); FcgRIIaR; not shown: His-tag added to C-terminus
T1 chain: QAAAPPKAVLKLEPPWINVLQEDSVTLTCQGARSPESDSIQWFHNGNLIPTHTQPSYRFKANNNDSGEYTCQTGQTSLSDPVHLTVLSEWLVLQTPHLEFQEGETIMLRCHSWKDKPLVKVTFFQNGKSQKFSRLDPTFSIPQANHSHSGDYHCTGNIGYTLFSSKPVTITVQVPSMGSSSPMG

T2: human FcγRIIb extracellular domain, C-terminal His-tag (human, UniProt P31994 43-217)
T2 construct: also called humanFcgRIIb; not shown: His-tag added to C-terminus
T2 sequence: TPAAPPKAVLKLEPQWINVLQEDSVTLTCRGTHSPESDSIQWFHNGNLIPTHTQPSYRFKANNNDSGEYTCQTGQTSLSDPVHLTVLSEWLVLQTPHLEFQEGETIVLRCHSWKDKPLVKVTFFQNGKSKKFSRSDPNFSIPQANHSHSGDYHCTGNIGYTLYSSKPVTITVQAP

T3: human FcγRIIaH extracellular domain, C-terminal His-tag (human, UniProt P12318 34-217)
T3 construct: also called human FcγRIIa (type H); FcgRIIaH; not shown: His-tag added to C-terminus
T3 sequence: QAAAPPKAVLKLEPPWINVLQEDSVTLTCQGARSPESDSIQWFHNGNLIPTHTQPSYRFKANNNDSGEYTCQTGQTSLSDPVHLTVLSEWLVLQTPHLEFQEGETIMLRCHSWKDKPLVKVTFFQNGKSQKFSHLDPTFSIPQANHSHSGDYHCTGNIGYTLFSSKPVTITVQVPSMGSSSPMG

T4: cynomolgus monkey FcγRIIa1 extracellular domain, C-terminal His-tag (cynomolgus monkey)
T4 construct: also called cyno FcγRIIa1; cynoFcgRIIa1; not shown: His-tag added to C-terminus
T4 chain: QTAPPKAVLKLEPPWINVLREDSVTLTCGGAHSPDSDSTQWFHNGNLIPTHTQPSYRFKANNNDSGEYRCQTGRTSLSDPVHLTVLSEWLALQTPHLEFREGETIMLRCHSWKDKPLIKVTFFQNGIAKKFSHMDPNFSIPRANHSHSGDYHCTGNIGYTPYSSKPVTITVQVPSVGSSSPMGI

T5: cynomolgus monkey FcγRIIa3 extracellular domain, C-terminal His-tag (cynomolgus monkey)
T5 construct: also called cyno FcγRIIa3; cynoFcgRIIa3; not shown: His-tag added to C-terminus
T5 chain: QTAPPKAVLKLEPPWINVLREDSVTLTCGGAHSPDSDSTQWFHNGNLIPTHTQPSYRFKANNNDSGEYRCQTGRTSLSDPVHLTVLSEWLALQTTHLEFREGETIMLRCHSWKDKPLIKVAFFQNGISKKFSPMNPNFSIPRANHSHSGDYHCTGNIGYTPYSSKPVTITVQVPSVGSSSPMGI

T6: cynomolgus monkey FcγRIIa2 extracellular domain, C-terminal His-tag (cynomolgus monkey)
T6 construct: also called cyno FcγRIIa2; cynoFcgRIIa2; not shown: His-tag added to C-terminus
T6 chain: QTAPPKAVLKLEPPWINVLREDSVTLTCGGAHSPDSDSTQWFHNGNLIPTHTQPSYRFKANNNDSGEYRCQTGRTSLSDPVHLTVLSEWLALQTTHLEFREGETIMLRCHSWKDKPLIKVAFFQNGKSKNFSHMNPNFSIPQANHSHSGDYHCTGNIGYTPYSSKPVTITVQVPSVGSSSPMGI

T7: cynomolgus monkey FcγRIIb extracellular domain, C-terminal His-tag (cynomolgus monkey)
T7 construct: also called cyno FcγRIIb; cynoFcγRIIb; not shown: His-tag added to C-terminus
T7 chain: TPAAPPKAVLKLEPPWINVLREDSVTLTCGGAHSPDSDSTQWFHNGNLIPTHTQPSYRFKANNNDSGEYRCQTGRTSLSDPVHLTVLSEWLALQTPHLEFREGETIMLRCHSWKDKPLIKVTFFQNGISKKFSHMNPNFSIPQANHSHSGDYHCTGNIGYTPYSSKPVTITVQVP


Legend:
[1] = target: T1, human FcγRIIaR extracellular domain, …; assay: SPR (BIACORE), antibody captured, FcγR analyte
Procedure: (§1) The kinetic analysis of interactions between these antibodies and FcγR was carried out using BIACORE® T200 or BIACORE® 4000 (GE Healthcare). HBS-EP+ (GE Healthcare) was used as the running buffer, and the measurement temperature was set to 25° C. A chip produced by immobilizing Protein A. Protein A/G or mouse anti-human IgG kappa light chain (BD Biosciences) onto a Series S Sensor Chip CM4 or CM5 (GE Healthcare) by the amine-coupling method was used. […] After the measurement, the antibody captured on the chip was washed off by allowing reaction with 10 mM glycine-HCl, pH1.5 and 25 mM NaOH so that the chip was regenerated and used repeatedly. The sensorgrams obtained as measurement results were analyzed by the 1:1 Langmuir binding model using the BIACORE® Evaluation Software to calculate the binding rate constant ka (L/mol/s) and dissociation rate constant kd (l/s), and the dissociation constant KD (mol/L) was calculated from these values. […] Regarding such interactions, KD values were calculated using the following 1:1 binding model described in BIACORE® T100 Software Handbook BR1006-48 Edition AE.

[2] = target: T2, human FcγRIIb extracellular domain, …; assay: SPR (BIACORE), antibody captured, FcγR analyte
Procedure: as §1

[3] = target: T3, human FcγRIIaH extracellular domain, …; assay: SPR (BIACORE), antibody captured, FcγR analyte
Procedure: as §1

[4] = target: T4, cynomolgus monkey FcγRIIa1 …; assay: SPR (BIACORE), antibody captured, FcγR analyte
Procedure: as §1

[5] = target: T5, cynomolgus monkey FcγRIIa3 …; assay: SPR (BIACORE), antibody captured, FcγR analyte
Procedure: as §1

[6] = target: T6, cynomolgus monkey FcγRIIa2 …; assay: SPR (BIACORE), antibody captured, FcγR analyte
Procedure: as §1

[7] = target: T8, cynomolgus monkey FcγRIIIaS extracellular domain, C-terminal His-tag (cynomolgus monkey, UniProt A3RFZ7 21-206 (rhesus entry)); assay: SPR (BIACORE), antibody captured, FcγR analyte
T8 construct: also called cyno FcγRIIIaS; cynoFcγRIIIaS; not shown: His-tag added to C-terminus
Procedure: as §1

[8] = target: T7, cynomolgus monkey FcγRIIb extracellular …; assay: SPR (BIACORE), antibody captured, FcγR analyte
Procedure: as §1

[9] = target: T9, human FcγRIIIaV extracellular domain, C-terminal His-tag (human, UniProt P08637 17-208); assay: SPR (BIACORE), antibody captured, FcγR analyte
T9 construct: also called FcgRIIIaV; not shown: His-tag added to C-terminus
Procedure: as §1

[10] = target: T1, human FcγRIIaR extracellular domain, …; assay: SPR (BIACORE); KD of parent SG1 / KD of variant;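 also: relative to parent M103205H795-SG1 carrying the SG1 human heavy chain constant region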
Procedure: as §1

[11] = target: T2, human FcγRIIb extracellular domain, …; assay: SPR (BIACORE); KD of parent SG1 / KD of variant;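 also: relative to parent M103205H795-SG1 carrying the SG1 human heavy chain constant region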
Procedure: as §1

[12] = target: T3, human FcγRIIaH extracellular domain, …; assay: SPR (BIACORE); KD of parent SG1 / KD of variant;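 also: relative to parent M103205H795-SG1 carrying the SG1 human heavy chain constant region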
Procedure: as §1

[13] = target: T4, cynomolgus monkey FcγRIIa1 …; assay: SPR (BIACORE); KD of parent SG1 / KD of variant;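 also: relative to parent M103205H795-SG1 carrying the SG1 human heavy chain constant region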
Procedure: as §1

[14] = target: T5, cynomolgus monkey FcγRIIa3 …; assay: SPR (BIACORE); KD of parent SG1 / KD of variant
Procedure: as §1

[15] = target: T6, cynomolgus monkey FcγRIIa2 …; assay: SPR (BIACORE); KD of parent SG1 / KD of variant
Procedure: as §1

[16] = target: T8, cynomolgus monkey FcγRIIIaS …; assay: SPR (BIACORE); KD of parent SG1 / KD of variant
Procedure: as §1

[17] = target: T7, cynomolgus monkey FcγRIIb extracellular …; assay: SPR (BIACORE); KD of parent SG1 / KD of variant
Procedure: as §1

[18] = target: T9, human FcγRIIIaV extracellular domain, …; assay: SPR (BIACORE); KD of parent SG1 / KD of variant
Procedure: as §1

T9 sequence (P08637 17-208 F176V): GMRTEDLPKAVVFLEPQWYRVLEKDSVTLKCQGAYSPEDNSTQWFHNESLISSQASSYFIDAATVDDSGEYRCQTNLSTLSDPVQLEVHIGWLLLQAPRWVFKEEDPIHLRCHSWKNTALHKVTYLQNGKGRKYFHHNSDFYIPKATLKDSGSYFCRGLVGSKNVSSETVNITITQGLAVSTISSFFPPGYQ
T8 sequence (A3RFZ7 21-206): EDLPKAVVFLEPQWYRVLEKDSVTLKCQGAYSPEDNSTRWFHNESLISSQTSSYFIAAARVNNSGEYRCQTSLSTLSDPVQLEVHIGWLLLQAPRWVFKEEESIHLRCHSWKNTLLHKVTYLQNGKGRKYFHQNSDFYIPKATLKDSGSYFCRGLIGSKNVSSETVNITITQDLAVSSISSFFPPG

Row | Kd [1] | Kd [2] | Kd [3] | Kd [4] | Kd [5] | Kd [6] | Kd [7] | Kd [8] | Kd [9] | KD fold (SG1 = 1) [10] | KD fold (SG1 = 1) [11] | KD fold (SG1 = 1) [12] | KD fold (SG1 = 1) [13] | KD fold (SG1 = 1) [14] | KD fold (SG1 = 1) [15] | KD fold (SG1 = 1) [16] | KD fold (SG1 = 1) [17] | KD fold (SG1 = 1) [18] | Binder
1 | 750 nM | 490 nM | 500 nM | 1100 nM | 2300 nM | 1000 nM | 2100 nM | 270 nM | 5.8 µM | 1.4 fold | 9.6 fold | 1.8 fold | 4.4 fold | 3.8 fold | 4.7 fold | 0.13 fold | 7.2 fold | 0.11 fold | M103205H795-SG1012 / M103202L889-SK1 (antibody, human IgG1, kappa, the text says N434A was introduced into MY101 (which also has A330K); also called MS1032LO06-SG1012) heavy: QVTLKESGPVLVKPTETLTLTCTVSGIDLSHDDISWVRQAPGKGLEWVGIISYAGSTYYASWAKGRLTISKDTSKNQVVLTMTNMDPVDTATYYCARGVPAYSHGGDLWGQGTLVTVSSASTKGPSVFPLAPSSKSTSGGTAALGCLVKDYFPEPVTVSWNSGALTSGVHTFPAVLQSSGLYSLSSVVTVPSSSLGTQTYICNVNHKPSNTKVDKKVEPKSCDKTHTCPPCPAPELLNGPSVFLFPPKPKDTLMISRTPEVTCVVVDVSEEDPEVKFNWYVDGVEVHNAKTKPREEQYNSTYRVVSVLTVLHQDWLNGKEYKCKVSNKALPKPIEKTISKAKGQPREPQVYTLPPSREEMTKNQVSLTCLVKGFYPSDIAVEWESNGQPENNYKTTPMVLDSDGSFFLYSKLTVDKSRWQQGNVFSCSVMHEALHAHYTQKSLSLSP light: DIVMTQSPATLSLSPGERATLSCTSSQSVYHANWLSWFQQKPGQPPKLLIYWASTLAYGVPSRFSGSGSGTDFTLTISSLQPEDAATYYCAGGYGGGRYAFGQGTKVEIKRTVAAPSVFIFPPSDEQLKSGTASVVCLLNNFYPREAKVQWKVDNALQSGNSQESVTEQDSKDSTYSLSSTLTLSKADYEKHKVYACEVTHQGLSSPVTKSFNRGEC
2 | 820 nM | 550 nM | 500 nM | 1300 nM | 2200 nM | 1100 nM | 2400 nM | 330 nM | 10 µM | 1.2 fold | 8.7 fold | 1.5 fold | 3.8 fold | 3.9 fold | 4.1 fold | 0.12 fold | 6 fold | 0.06 fold | M103205H795-SG1016 / M103202L889-SK1 (antibody, human IgG1, kappa, the text says Q311R/D399K; also called MS1032LO06-SG1016) heavy: QVTLKESGPVLVKPTETLTLTCTVSGIDLSHDDISWVRQAPGKGLEWVGIISYAGSTYYASWAKGRLTISKDTSKNQVVLTMTNMDPVDTATYYCARGVPAYSHGGDLWGQGTLVTVSSASTKGPSVFPLAPSSKSTSGGTAALGCLVKDYFPEPVTVSWNSGALTSGVHTFPAVLQSSGLYSLSSVVTVPSSSLGTQTYICNVNHKPSNTKVDKKVEPKSCDKTHTCPPCPAPELLNGPSVFLFPPKPKDTLMISRTPEVTCVVVDVSEEDPEVKFNWYVDGVEVHNAKTKPREEQYNSTYRVVSVLTVLHRDWLNGKEYKCKVSNKALPKPIEKTISKAKGQPREPQVYTLPPSREEMTKNQVSLTCLVKGFYPSDIAVEWESNGQPENNYKTTPMVLRSDGSFFLYSKLTVDKSRWQQGNVFSCSVMHEALHAHYTQKSLSLSP light: DIVMTQSPATLSLSPGERATLSCTSSQSVYHANWLSWFQQKPGQPPKLLIYWASTLAYGVPSRFSGSGSGTDFTLTISSLQPEDAATYYCAGGYGGGRYAFGQGTKVEIKRTVAAPSVFIFPPSDEQLKSGTASVVCLLNNFYPREAKVQWKVDNALQSGNSQESVTEQDSKDSTYSLSSTLTLSKADYEKHKVYACEVTHQGLSSPVTKSFNRGEC

Reference: patent US20200317768A1 (published 2020)
